What was measured:
[1] = molecular target: T1, human CD137 on cells (human, UniProt Q07011 24-255); assay: cell-based or functional assay
[2] = molecular target: T2, human 5T4 on cells (human, UniProt Q13641 32-420); assay: flow cytometry, CHO-K1 cells expressing human 5T4, labelled anti-human IgG secondary, MFI (mean)
T2 construct: also called TPBG; hu5T4
T2 sequence: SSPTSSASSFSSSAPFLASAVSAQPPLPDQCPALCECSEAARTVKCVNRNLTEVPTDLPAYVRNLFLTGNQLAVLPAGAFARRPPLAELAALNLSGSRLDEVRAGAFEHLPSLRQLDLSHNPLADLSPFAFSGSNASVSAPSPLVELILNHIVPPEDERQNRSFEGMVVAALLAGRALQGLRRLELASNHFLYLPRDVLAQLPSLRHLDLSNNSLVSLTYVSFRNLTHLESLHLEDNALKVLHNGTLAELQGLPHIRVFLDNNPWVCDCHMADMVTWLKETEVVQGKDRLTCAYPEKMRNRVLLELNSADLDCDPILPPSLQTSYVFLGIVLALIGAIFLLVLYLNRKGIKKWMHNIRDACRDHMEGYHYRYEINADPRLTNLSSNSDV
Procedure: (§1) Binding studies were performed by standard flow cytometry-based staining procedures two cell lines expressing 5T4:CHO-K1 cells (obtained from Alligator) transduced with human or cynomolgus macaque 5T4 and SKOV-3 human ovarian adenocarcinoma cells which express (human) 5T4. All labeling and washes were performed in U-bottom 96-well plates in saline buffer with 0.1% BSA and 2 mM EDTA. Cell were plated at approximately 100,000 cells per well and incubated with a range of 100 nM to 0.05 nM concentrations of test molecules in […], for 30 minutes on ice. Cells were washed three times then incubated for another 30 min on ice with fluorescently-labeled secondary polyclonal antibody, F(ab′)² goat anti-human IgG (Jackson ImmunoResearch Laboratories). The cells were then washed twice and the samples acquired in a BD LSRII or a Symphony A3 flow cytometer. The sample files were analyzed using FlowJo software; the mean fluorescence intensity (MFI-mean) or median fluorescence intensity (MFI-median) of the live population of cells in each well was calculated after gating on live cells (forward vs side scatter). Nonlinear regression analysis to determine EC₅₀ values was performed in GraphPad Prism 6® graphing and statistics software.

[3] = molecular target: T1, human CD137 on cells; assay: flow cytometry, CHO-K1 cells expressing human CD137, PE anti-human IgG Fc secondary, MFI (median)
Procedure: (§2) Binding studies on CHO-K1 cells lines expressing CD137 were performed by standard flow cytometry-based staining procedures. CHO-K1 cells (generated by Alligator) were transfected with human or cynomolgus macaque CD137. A typical experiment would label approximately 100,000 cells per well, in 96-well plates, with a range of 100 nM to 0.05 nM binding molecule in 50 μL of saline buffer with 2% BSA and 2 mM EDTA, for 30 min on ice, followed by washes and incubation with PE-labeled secondary antibody, goat anti-human IgG Fcγ ([…]), for 20 minutes on ice. Signal from bound molecules was detected using a LSR-II™ or a Symphony A3 flow cytometer (BD Biosciences) and analyzed by FlowJo flow cytometry analysis software. Median fluorescence intensity (MFI-median) of bound molecules on live cells was determined after exclusion of doublets cells. Nonlinear regression analysis to determine EC₅₀ values was performed in GraphPad Prism 6® graphing and statistics software.

[4] = molecular target: T3, cynomolgus CD137 on cells (cynomolgus macaque, UniProt A9YYE7 24-254); assay: flow cytometry, CHO-K1 cells expressing cynomolgus CD137, PE anti-human IgG Fc secondary, MFI (median)
T3 construct: whole, on cells; also called CHO-K1/cynomolgus CD137 cell line; cynomolgus monkey CD137 on CD3-stimulated primary CD8 T cells
Procedure: as §2

[5] = molecular target: T4, cynomolgus 5T4 on cells (cynomolgus macaque, UniProt Q4R8Y9 35-420); assay: flow cytometry, CHO-K1 cells expressing cynomolgus 5T4, labelled anti-human IgG secondary, MFI (median)
T4 construct: whole, on cells; also called CHO-K1/cynomolgus 5T4 transfectants
T4 sequence (looked up): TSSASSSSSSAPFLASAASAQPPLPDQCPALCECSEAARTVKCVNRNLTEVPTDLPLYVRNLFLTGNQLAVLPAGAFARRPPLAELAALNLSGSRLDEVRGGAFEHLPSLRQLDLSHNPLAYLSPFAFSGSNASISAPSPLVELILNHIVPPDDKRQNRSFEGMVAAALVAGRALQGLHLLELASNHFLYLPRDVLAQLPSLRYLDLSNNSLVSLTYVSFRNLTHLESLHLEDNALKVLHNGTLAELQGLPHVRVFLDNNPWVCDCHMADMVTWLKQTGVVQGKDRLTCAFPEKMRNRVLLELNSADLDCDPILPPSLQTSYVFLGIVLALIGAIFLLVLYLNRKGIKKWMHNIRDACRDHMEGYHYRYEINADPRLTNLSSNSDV
Procedure: as §1

[6] = molecular target: T2, human 5T4 on cells; assay: flow cytometry, SKOV-3 cells (endogenous human 5T4), labelled anti-human IgG secondary, MFI (mean)
Procedure: as §1

T1 sequence (Q07011 24-255 limits assumed): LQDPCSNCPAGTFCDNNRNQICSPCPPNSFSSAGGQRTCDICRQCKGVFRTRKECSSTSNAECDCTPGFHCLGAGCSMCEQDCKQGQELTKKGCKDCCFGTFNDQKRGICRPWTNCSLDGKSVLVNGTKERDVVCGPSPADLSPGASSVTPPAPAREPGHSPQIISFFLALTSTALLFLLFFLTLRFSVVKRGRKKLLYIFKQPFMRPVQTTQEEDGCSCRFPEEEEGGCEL
T3 sequence (A9YYE7 entry or part of it): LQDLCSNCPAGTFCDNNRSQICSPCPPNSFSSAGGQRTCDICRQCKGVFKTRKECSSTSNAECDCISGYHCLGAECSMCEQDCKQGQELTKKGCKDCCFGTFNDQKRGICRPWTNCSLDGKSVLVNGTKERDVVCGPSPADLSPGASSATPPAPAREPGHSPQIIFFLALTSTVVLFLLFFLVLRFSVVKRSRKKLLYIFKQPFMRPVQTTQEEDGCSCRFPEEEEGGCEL

Binder	CD137 reporter assay with HCC1143 cells, EC50 against ALG.APV-006 and ALG.APV-004 [1] [fold lower EC50]	EC50 [2] [nM]	Maximum MFI [2]	EC50 [3] [nM]	EC50 [4] [nM]	EC50 [5] [nM]	Maximum MFI [5]	EC50 [6] [nM]	Maximum MFI [6]
ALG.APV-191 (bispecific antibody, Optimized ADAPTIR scFv-Fc-scFv homodimer) EVQLLESGGGLVQPGGSLRLSCAASGFTFDYGSMYWVRQAPGKGLEWVSSISSGSGSTYYADSVKGRFTISHDNSKNTLYLQMNSLRAEDTAVYYCARSSYYGSYYSIDYWGQGTLVTVSSGGGGSGGGGSGGGGSGGGGSDIQMTQSPSSLSASVGDRVTITCRASQSISSYLNWYQQKPGKAPKLLIYAASSLHSGVPSRFSGSGSGTDFTLTISSLQPEDFATYYCQQYYDNLPTFGQGTKLEIKSSEPKSSDKTHTCPPCPAPEAAGAPSVFLFPPKPKDTLMISRTPEVTCVVVDVSHEDPEVKFNWYVDGVEVHNAKTKPREEQYNSTYRVVSVLTVLHQDWLNGKEYKCAVSNKALPAPIEKTISKAKGQPREPQVYTLPPSRDELTKNQVSLTCLVKGFYPSDIAVEWESNGQPENNYKTTPPVLDSDGSFFLYSKLTVDKSRWQQGNVFSCSVMHEALHNHYTQKSLSLSPGSGGGGSGGGGSGGGGSPSEVQLLESGGGLVQPGGSLRLSCAASGFTFSSYAMSWVRQAPGKCLEWVSAISGSGGSTYYADSVKGRFTISRDNSKNTLYLQMNSLRAEDTAVYYCARYYGGYYSAWMDYWGQGTLVTVSSGGGGSGGGGSGGGGSGGGGSDIQMTQSPSSLSASVGDRVTITCRASQSISSFLNWYQQKPGKAPKLLIYAASSLQSGVPSRFSGSGSGTDFTLTISSLQPEDFATYYCQQTYGYLHTFGCGTKLEIKS	≤ 6	10.9	14100	1.1	1.7	22	25100		
ALG.APV-196 (bispecific antibody, Optimized ADAPTIR scFv-Fc-scFv homodimer) EVQLLESGGGLVQPGGSLRLSCAASGFTFSYGSMYWVRQAPGKGLEWVSSISSGSGSTYYADSVKGRFTISHDNSKNTLYLQMNSLRAEDTAVYYCARSSYYGSYYSIDYWGQGTLVTVSSGGGGSGGGGSGGGGSGGGGSDIQMTQSPSSLSASVGDRVTITCRASQSISSYLNWYQQKPGKAPKLLIYAASSLQSGVPSRFSGSGSGTDFTLTISSLQPEDFATYYCQQYYDNLPTFGQGTKLEIKSSEPKSSDKTHTCPPCPAPEAAGAPSVFLFPPKPKDTLMISRTPEVTCVVVDVSHEDPEVKFNWYVDGVEVHNAKTKPREEQYNSTYRVVSVLTVLHQDWLNGKEYKCAVSNKALPAPIEKTISKAKGQPREPQVYTLPPSRDELTKNQVSLTCLVKGFYPSDIAVEWESNGQPENNYKTTPPVLDSDGSFFLYSKLTVDKSRWQQGNVFSCSVMHEALHNHYTQKSLSLSPGSGGGGSGGGGSGGGGSPSEVQLLESGGGLVQPGGSLRLSCAASGFDFESYAMSWVRQAPGKCLEWVSAISGSGGSTYYADSVKGRFTISRDNSKNTLYLQMNSLRAEDTAVYYCARYYGGYYSAWMDYWGQGTLVTVSSGGGGSGGGGSGGGGSGGGGSDIQMTQSPSSLSASVGDRVTITCRASQSIRSALNWYQQKPGKAPKLLIYAASSLQSGVPSRFSGSGSGTDFTLTISSLQPEDFATYYCQQTYGYLHTFGCGTKLEIKR	≤ 6	3.4	13500	0.9	1.8	7	21100	1.7	1130
ALG.APV-198 (bispecific antibody, Optimized ADAPTIR scFv-Fc-scFv homodimer) EVQLLESGGGLVQPGGSLRLSCAASGFTFSHGSMYWVRQAPGKGLEWVSSISSGSGSTYYADSVKGRFTISHDNSKNTLYLQMNSLRAEDTAVYYCARSSYYGSYYSIDYWGQGTLVTVSSGGGGSGGGGSGGGGSGGGGSDIQMTQSPSSLSASVGDRVTITCRASQSISSYLNWYQQKPGKAPKLLIYAASSLQSGVPSRFSGSGSGTDFTLTISSLQPEDFATYYCQQYYDNLPTFGQGTKLEIKSSEPKSSDKTHTCPPCPAPEAAGAPSVFLFPPKPKDTLMISRTPEVTCVVVDVSHEDPEVKFNWYVDGVEVHNAKTKPREEQYNSTYRVVSVLTVLHQDWLNGKEYKCAVSNKALPAPIEKTISKAKGQPREPQVYTLPPSRDELTKNQVSLTCLVKGFYPSDIAVEWESNGQPENNYKTTPPVLDSDGSFFLYSKLTVDKSRWQQGNVFSCSVMHEALHNHYTQKSLSLSPGSGGGGSGGGGSGGGGSPSEVQLLESGGGLVQPGGSLRLSCAASGFDFESYAMSWVRQAPGKCLEWVSAISGSGGSTYYADSVKGRFTISRDNSKNTLYLQMNSLRAEDTAVYYCARYYGGYYSAWMDYWGQGTLVTVSSGGGGSGGGGSGGGGSGGGGSDIQMTQSPSSLSASVGDRVTITCRASQSIRSALNWYQQKPGKAPKLLIYAASSLQSGVPSRFSGSGSGTDFTLTISSLQPEDFATYYCQQTYGYLHTFGCGTKLEIKR	≤ 6	3.1	13200	1	1.8	7	20600	1.8	1070
